B1: CD9 Δ133-192 (receptor)
chain: MPVKGGTKCIKYLLFGFNFIFWLAGIAVLAIGLWLRFDSQTKSIFEQETNNNNSSFYTGVYILIGAGALMMLVGFLGCCGAVQESQCMLGLFFGFLLVIFAIEIAAAIWGYSHKDEVIKEVQEFYKDTYNKLFHIIGAVGIGIAVVMIFGMIFSMILCCAIRRNREMV
B2: CD9 Δ113-228 (receptor)
chain: MPVKGGTKCIKYLLFGFNFIFWLAGIAVLAIGLWLRFDSQTKSIFEQETNNNNSSFYTGVYILIGAGALMMLVGFLGCCGAVQESQCMLGLFFGFLLVIFAIEIAAAIWGYS
B3: CD9 Δ173-192 (receptor)
chain: MPVKGGTKCIKYLLFGFNFIFWLAGIAVLAIGLWLRFDSQTKSIFEQETNNNNSSFYTGVYILIGAGALMMLVGFLGCCGAVQESQCMLGLFFGFLLVIFAIEIAAAIWGYSHKDEVIKEVQEFYKDTYNKLKTKDEPQRETLKAIHYALNCCGLAGGVEQFISDICPKKDVFHIIGAVGIGIAVVMIFGMIFSMILCCAIRRNREMV

Columns and labels:
human plasma fibronectin [1] = target: T1, human plasma fibronectin (human, UniProt P02751-8 32-2296, limits assumed); test: cell-based or functional assay
human plasma fibronectin [2] = target: T1, human plasma fibronectin; test: competition ELISA, peptide 6 titrated 0-160 µM against FN binding to immobilized CD9
Method: FIG. 2C illustrates the effect of titrations of Peptide 6 (0-160 μM) on FN-CD9 binding was evaluated. […] The ability of CD9-CHO-B2 cells to adhere to FN was compared with Mock-CHOB2 cells. CD9-CHO-B2 cells had increased adhesion to FN in the absence of integrin α5β1 expression when compared to Mock-CHO-B2 cells. […] A scrambled control (peptide 6S) had no significant effect on CD9-CHO-B2 cell adhesion (p>0.005).
All incubation periods for the CD9/FN binding ELISA lasted two hours at RT unless otherwise indicated. Immulon I (Dynatech) microtiter plate wells were coated with CD9 (2 μg/ml), His₆-rCD9 (2 μg/ml), BSA (10 μg/ml), or peptide (10 μM) in Buffer A. After one wash with Buffer B, plates were blocked with Blocking Buffer 1.1% BSA was included in steps from ligand overlay to addition of mAb conjugate to minimize non-specific binding. Titrations of human plasma FN in Buffer B were added to plates either alone, or in the case of competition ELISAs, with 0-160 μM synthetic peptide. Plates were washed three times with ELISA Buffer B, followed by incubation with a 1/1000 dilution of rabbit anti-FN antibody. After two washes with Buffer B and one wash with Buffer C, plates were incubated with 1/500 antirabbit IgG alkaline phosphatase in Buffer C for one hour at RT. After four washes with Buffer C, 1 mg/mlp-nitrophenyl phosphate substrate was added and the absorbance at 405 nm was recorded.

T1 sequence (P02751 other isoform, or with tags, fused parts or gaps limits assumed): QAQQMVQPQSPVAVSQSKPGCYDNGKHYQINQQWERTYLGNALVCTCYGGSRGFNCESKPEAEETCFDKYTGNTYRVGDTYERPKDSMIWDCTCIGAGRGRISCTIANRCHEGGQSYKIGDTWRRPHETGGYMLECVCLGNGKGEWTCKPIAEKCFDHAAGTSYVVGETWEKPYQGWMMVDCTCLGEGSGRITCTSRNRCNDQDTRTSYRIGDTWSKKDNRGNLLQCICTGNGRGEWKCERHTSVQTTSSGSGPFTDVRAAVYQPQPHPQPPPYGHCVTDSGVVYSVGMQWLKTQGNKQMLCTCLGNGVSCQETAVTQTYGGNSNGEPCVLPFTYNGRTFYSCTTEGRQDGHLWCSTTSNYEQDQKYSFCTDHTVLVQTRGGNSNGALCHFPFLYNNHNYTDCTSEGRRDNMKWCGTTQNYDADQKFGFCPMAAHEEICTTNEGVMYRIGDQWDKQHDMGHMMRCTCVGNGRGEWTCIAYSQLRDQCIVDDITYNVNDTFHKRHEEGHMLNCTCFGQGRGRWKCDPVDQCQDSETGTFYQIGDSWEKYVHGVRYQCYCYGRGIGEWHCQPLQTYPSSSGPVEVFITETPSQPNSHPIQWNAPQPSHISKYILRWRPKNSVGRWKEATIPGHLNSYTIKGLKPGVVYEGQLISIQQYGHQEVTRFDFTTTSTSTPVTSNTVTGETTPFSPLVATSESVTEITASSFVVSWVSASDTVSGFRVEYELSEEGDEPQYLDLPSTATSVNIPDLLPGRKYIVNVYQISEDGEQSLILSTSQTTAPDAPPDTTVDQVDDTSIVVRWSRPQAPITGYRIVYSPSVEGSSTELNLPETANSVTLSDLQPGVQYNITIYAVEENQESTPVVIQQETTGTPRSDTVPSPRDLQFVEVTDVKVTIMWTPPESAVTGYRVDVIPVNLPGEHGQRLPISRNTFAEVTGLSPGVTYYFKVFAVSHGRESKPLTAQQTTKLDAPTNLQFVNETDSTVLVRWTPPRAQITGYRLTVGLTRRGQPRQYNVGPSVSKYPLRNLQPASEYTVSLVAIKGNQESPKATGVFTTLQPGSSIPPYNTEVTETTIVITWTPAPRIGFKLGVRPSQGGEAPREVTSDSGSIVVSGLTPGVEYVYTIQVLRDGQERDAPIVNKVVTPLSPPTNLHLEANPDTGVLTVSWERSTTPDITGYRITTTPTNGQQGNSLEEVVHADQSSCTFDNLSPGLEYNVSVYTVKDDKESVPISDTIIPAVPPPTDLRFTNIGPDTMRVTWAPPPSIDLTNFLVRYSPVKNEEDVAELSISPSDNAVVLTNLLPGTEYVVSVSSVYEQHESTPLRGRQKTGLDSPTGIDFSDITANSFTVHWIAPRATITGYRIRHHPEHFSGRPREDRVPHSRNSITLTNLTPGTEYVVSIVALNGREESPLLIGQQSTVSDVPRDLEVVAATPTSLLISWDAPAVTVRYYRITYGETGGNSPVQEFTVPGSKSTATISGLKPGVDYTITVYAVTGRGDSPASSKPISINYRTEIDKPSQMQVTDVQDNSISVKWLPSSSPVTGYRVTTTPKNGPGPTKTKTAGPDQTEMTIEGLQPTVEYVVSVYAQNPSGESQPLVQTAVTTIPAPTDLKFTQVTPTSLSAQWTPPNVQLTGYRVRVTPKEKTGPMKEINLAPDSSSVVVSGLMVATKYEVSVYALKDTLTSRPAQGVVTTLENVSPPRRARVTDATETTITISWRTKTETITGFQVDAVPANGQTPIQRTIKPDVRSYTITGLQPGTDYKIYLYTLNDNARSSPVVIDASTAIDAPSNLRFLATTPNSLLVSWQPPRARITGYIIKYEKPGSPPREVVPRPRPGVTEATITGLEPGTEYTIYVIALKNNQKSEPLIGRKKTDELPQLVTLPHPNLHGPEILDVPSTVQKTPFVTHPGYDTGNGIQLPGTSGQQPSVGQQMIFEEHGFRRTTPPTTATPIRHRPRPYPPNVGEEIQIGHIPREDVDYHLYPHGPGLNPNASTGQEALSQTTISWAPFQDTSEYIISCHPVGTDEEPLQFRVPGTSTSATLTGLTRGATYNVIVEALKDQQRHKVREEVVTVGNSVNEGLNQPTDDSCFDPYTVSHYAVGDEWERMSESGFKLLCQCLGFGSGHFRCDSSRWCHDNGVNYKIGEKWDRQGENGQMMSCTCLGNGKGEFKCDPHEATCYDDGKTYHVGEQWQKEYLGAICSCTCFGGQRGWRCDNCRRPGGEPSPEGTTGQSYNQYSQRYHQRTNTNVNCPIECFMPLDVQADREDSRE

| reduction in haptotactic motility to FN (human plasma fibronectin [1]) [%] | IC50 (read off the curve) (human plasma fibronectin [2]) [µM] | Binder |
| --- | --- | --- |
| 64 | – | B1 |
| 58 | – | B2 |
| 45 | – | B3 |
| – | ~20 | PKKDVLETFTVKSCPDAIKEVFDNK (Synthetic peptide of CD9 EC2) [peptide 6] |

From patent US20040136985A1 (published 2004)
